Substrate in data set [1]: O=c1cc(-c2ccc(O)c(O)c2)oc2cc(O)cc(O)c12
The data set is described as follows: purified protein, by the assay type. Conditions: pH 8.0; 20.0 °C. Also noted: HPLC glucoside product formation by recombinant GST-UGT, 1.5 mM UDP-glucose, Michaelis-Menten fit. The method, then:
(§1) To determine the kinetic constants of UGTs for flavonoid acceptors, their activities were determined using 0 to 400 μM different flavonoids at a fixed concentration of 1.5 mM UDP-glucose. Flavonoids were purchased from BioBioPha Co., Ltd (www.biobiopha.com/) and UDP-sugars were purchased from Sigma-Aldrich, USA. All Kinetic parameters were calculated using Michaelis-Menten model (Sigma Plot, version 12.5). All the reactions were run in duplicate, and each experiment was repeated twice. The full cDNA of UGTs from Nipponbare (O. sativa L. spp. japonica) were cloned into the pGEX-6p-1 expression vector (Novagen) with a glutathione S-transferase tag. Recombinant proteins were expressed in BL21 (DE3) cells (Novagen) following induction by addition of 0.1 mM isopropy-β-D-thiogalactoside (IPTG) and growing continually for 16 h at 20 °C. Cells were collected and pellets were resuspended in lysis buffer (50 mM Tris-HCl, pH 8.0, 400 mM NaCl). The cells were disrupted by the high pressure cracker and cell debris was removed by centrifugation (14000 g, 1 h). Glutathione Sepharose 4B agarose (GE Healthcare) was added to the supernatant containing the target proteins. After incubation for 1 h, the mixture was transferred into a disposable column and washed extensively with lysis buffer (5 column volumes). Target proteins in collections were confirmed by SDS-PAGE and purified recombinant proteins were selected for enzyme assays and kinetics determination.

Substrate in data set [2]: O=c1c(O)c(-c2ccc(O)c(O)c2)oc2cc(O)cc(O)c12
Briefly: purified protein, by the assay type. On the set-up: HPLC glucoside product formation by recombinant GST-UGT, 1.5 mM UDP-glucose, Michaelis-Menten fit. Conditions: pH 8.0; 20.0 °C. As to the method: as §1

Substrate in data set [3]: O=c1cc(-c2ccc(O)cc2)oc2cc(O)cc(O)c12
Briefly: purified protein. Conditions: 1.5 mM UDP-glucose, 5 mM MgCl2, Tris-HCl pH 7.4, 37 °C.

Substrate in data set [4]: O=c1c(O)c(-c2ccc(O)cc2)oc2cc(O)cc(O)c12
The data set is described as follows: purified protein. Conditions: 1.5 mM UDP-glucose, 5 mM MgCl2, Tris-HCl pH 7.4, 37 °C, 3-O-glucosylation.

B1: OsUGT706D1 (Oryza sativa Japonica Group) (protein)
chain: MESKPSRNVVLYAAMGAGHLLPMVELAKLFLTRGLDVTIAVPATPGSGTTGSPTIAGIAASNPSITFHHLPPPPSCADPDPNPLLLMLDVLRRSVPSLASLLRSIPSVAALVLDIFCAEAVDAAAALHVPAYIYFTSAAGAFAASLGLMHHYSTTTTNLRDMGKALLRFPGVPPIPASDMPSLVQDREGRFYKARVKLYARAMEASGVLLNTYEWLEARAMGALREGACSPDRPTPPVYCVGPLVASGEEEGGGVRHACLAWLDAQPARSVVFLCFGSMGSFSAAQLKEIARGLESSGHRFLWVVRSPRQDPANLLEHLPEPDLAALLPEGFLERTADKGMVVKSWAPQAKVLRHAATAAFVTHCGWNSTLEGITAGVPLLCWPLYAEQRMNKVFIVEEMKVGVVIDGYDEEMVSAEEVEAKVRLVMESEEGGKLLERLAVARAKAVEALAEEGPSRVAFDEFIDRLVTSE
notes: full cDNA in pGEX-6p-1, N-terminal GST fusion, E. coli BL21(DE3), glutathione Sepharose purified
Usually Km stands for the substrate concentration at which the rate is half of its maximum. A word on the kcat: it is the number of substrate molecules converted per active site and unit of time at saturation. Usually kcat/Km stands for the second-order rate constant that governs catalysis at low substrate concentration. As for B1, the Km in data set [1] is 11.6 ± 0.35 µM; in data set [2], 11.9 ± 1.9 µM; in data set [3] (7-O-glucosylation) it was 17.7 ± 1.3 µM; in data set [4] it was 16.8 ± 1.3 µM. Moreover, the turnover number (kcat) in data set [1] is 0.4 ± 0.2 s⁻¹; in data set [2] it was 0.07 s⁻¹; in data set [3] (7-O-glucosylation) it was 0.7 ± 0.02 s⁻¹; in data set [4], 0.4 ± 0.01 s⁻¹. The kcat/Km in data set [1] worked out at 40000 M⁻¹ s⁻¹.

B2: OsUGT707A2 (Oryza sativa Japonica Group) (protein)
chain: MAPAMASSAATVVLIPFCVSGHLTPMLEVGKRMLRSRCCGDDDDGRPAMSLTVLLAQLPESHRAPEIDEIIRREAAGASEHSGFDVRFHCLPAEELPDFRGGEDFISRFMQQHASHAREAIAGLESRVAAVVLDWFCTTLLDVTRDLGLPGYVFFTSAASMLSLLLRLPALDKEVAVDFEEMGGAVDLPGLPPVPAALLPTPVMKKGCNYEWLVYHGSRFMEAAGIIVNTVAELEPAVLEAIADGRCVPGRRVPAIYTVGPVLSFKTPPEKPHECVRWLDAQPRASVVFLCFGSMGSFAPPQVLEIAAGLERSGHRFLWVLRGRPPAGSPYPTDADADELLPEGFLERTKGRGMVWPTWAPQKDILAHAAVGGFVTHGGWNSTLESLWHGVPMAPWPLYAEQHLNAFELVRDMGVAVEMEVDRKRGNLVEAAELERAVRCLMDEGSEEGRMAREKAAAAKAACRNAVDGGGSSIAALRKLTQEMAHMSSI
notes: as for B1
For the protein B2, the Km in data set [1] was found to be 1.5 ± 0.5 µM; in data set [2], 5.1 ± 0.6 µM; in data set [3] (5-O-glucosylation), 8.9 ± 1.8 µM; in data set [4], 6.7 ± 0.7 µM. Moreover, the kcat amounted to 0.05 ± 0.01 s⁻¹ in data set [1], 0.06 ± 0.01 s⁻¹ in data set [2], 0.4 ± 0.06 s⁻¹ in data set [3] (5-O-glucosylation) and 0.20 ± 0.01 s⁻¹ in data set [4]. Further, the figures for the kcat/Km in data set [1] and in data set [2] were 30000 M⁻¹ s⁻¹ and 10000 M⁻¹ s⁻¹, respectively.
